The values below come from doi:10.1101/2023.01.24.525215.

Common to all, as to assay: EMSA
In general terms: Mobility shift assays separate free from complexed probe on a gel.

In series [1] the target is CAM5 (Arabidopsis thaliana, UniProt Q682T9 1-149).
In series [2] the target is T1, WRKY53 (Arabidopsis thaliana, UniProt Q9SUP6 1-324).
T1 sequence: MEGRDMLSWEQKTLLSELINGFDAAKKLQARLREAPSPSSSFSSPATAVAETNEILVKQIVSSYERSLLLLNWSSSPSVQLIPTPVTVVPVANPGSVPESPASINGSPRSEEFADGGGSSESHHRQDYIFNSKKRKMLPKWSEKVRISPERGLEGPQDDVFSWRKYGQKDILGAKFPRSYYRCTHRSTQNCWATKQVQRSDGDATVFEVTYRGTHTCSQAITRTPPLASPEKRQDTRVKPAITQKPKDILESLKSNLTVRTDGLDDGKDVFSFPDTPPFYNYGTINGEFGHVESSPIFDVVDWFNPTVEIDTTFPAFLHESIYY

Series [3] concerns the target T2, TGA5 (Arabidopsis thaliana, UniProt Q39163 1-330).
T2 sequence: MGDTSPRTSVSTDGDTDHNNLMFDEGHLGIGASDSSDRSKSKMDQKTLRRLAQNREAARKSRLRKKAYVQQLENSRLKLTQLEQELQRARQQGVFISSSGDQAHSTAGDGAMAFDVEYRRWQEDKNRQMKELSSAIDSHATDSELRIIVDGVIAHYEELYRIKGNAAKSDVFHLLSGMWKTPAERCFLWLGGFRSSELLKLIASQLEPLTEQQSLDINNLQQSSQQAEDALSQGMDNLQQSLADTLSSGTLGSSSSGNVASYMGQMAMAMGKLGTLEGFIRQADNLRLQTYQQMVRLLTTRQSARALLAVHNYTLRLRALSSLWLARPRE

B1: PDF1.2 w-box probe (dsDNA)
DNA 1: ATAATTATTCTTGACTGATGTATGCATATA
DNA 2: TATATGCATACATCAGTCAAGAATAATTAT
B1: the binding result was “no binding” in series [1] and “binds” in series [2].

B2: PR1 w-box probe (dsDNA)
DNA 1: TTTATTTGAAAATTGACTGTAGATATAAAC
DNA 2: GTTTATATCTACAGTCAATTTTCAAATAAA
For the molecule B2, the binding result in series [1] is reported as “no binding”; in series [2] it was “binds”; in series [3], “binds”.

B3: PDF1.2 as-1 probe (dsDNA)
DNA 1: ATGTTGTATTTGTTCGACGATGACGAAGGT
DNA 2: ACCTTCGTCATCGTCGAACAAATACAACAT
On to B3, for which the results for the binding result in series [2] and in series [3] were “no binding” and “binds”, respectively.
